Experiments:
[1] = target: G-Ara h 2/6 (native Ara h 2/6 heated for 15 min to 110°C in the presence of 100 mM glucose); assay: SEC; Superdex-75 column on an Äkta Basic FPLC, calibrated with gel filtration molecular weight standards; Ara h 2/6 before and after heating for 15 min at 110°C in the presence or absence of glucose
[2] = target: H-Ara h 2/6 (native Ara h 2/6 heated for 15 min to 110°C alone); assay: as above

Row | percent of the protein remaining monomeric [1] [%] | percent of the protein remaining monomeric [2] [%] | Substance
1 | 20 | – | G-Ara h 2/6 (native Ara h 2/6 heated for 15 min to 110°C in the presence of 100 mM glucose)
2 | – | 20 | H-Ara h 2/6 (native Ara h 2/6 heated for 15 min to 110°C alone)
